Read-outs that look alike come from different tables or passages of the source.

To fix the notation:
B1: OS-9 ΔMRH (267–666) (domain or fragment, rat, UniProt Q5RKH6 267-666, looked up)
chain: QHEEKVTEEVQDTDHQVWSGSKAAGAPPKKEDVSPTKEDKESEFWKMLQEPEEQATGTEEAQAGEQDLNHEAAADPAPAPPTDFQNNVQVKLIRSPADLIRLIEELKGAEKGKPSVRQEQPGDDTTEAPQREAEAKGKGGEPRGLVEEEDGDEEEEDEDEDEQQLLGEFEKELEGMLLPSDRERLRSEVKAGMERELENIIQETEKELDPEGLRKESEREQAILALTSTLDKLIKRLQESQSPELVQKYKKRRVVPQKPPPSPHPTEEEPEHRVRVRVTKLRHGGPNQDLTVLEMNRENPQLKQIEGLVTEVLEREGLTAEGKIEIKIVRPGAEGKEEDTRWLTDEDTRNLKEIFFNILVQGAEEANKERQRQSELESNYRRVWGSPGGEDTGDLDEFDF
B5: Grp94-C (601–754) (domain or fragment, canine, UniProt P41148 601-754, looked up)
chain: SEKTKESREAIEKEFEPLLNWMKDKALKDKIEKAVVSQRLTESPCALVASQYGWSGNMERIMKAQAYQTGKDISTNYYASQKKTFEINPRHPLIKDMLRRVKEDEDDKTVSDLAVVLFETATLRSGYLLPDTKAYGDRIERMLRLSLNIDPDAK

Holding throughout (assay): ITC
The target of experiment [1] is T1, His-Grp94-MC (337–765) (canine, UniProt P41148 337-765).
Another experiment has as its target Grp94-M (337–594) (canine, UniProt P41148 337-594).
In the experiment “Grp94-C (601–754)” the target is B5.
The target in experiment [2] is T1, His-Grp94-MC (337–765). This is another data set of the same source.
A further experiment deals with T2, OS-9 ΔMRH (Homo sapiens, UniProt Q13438).
T2 chain: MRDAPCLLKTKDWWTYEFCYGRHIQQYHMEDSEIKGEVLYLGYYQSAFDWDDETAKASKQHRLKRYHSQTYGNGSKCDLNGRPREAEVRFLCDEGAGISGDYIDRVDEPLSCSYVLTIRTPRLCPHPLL

Another experiment concerns the target T3, OS-9 CTE (Homo sapiens, UniProt Q13438).
T3 chain: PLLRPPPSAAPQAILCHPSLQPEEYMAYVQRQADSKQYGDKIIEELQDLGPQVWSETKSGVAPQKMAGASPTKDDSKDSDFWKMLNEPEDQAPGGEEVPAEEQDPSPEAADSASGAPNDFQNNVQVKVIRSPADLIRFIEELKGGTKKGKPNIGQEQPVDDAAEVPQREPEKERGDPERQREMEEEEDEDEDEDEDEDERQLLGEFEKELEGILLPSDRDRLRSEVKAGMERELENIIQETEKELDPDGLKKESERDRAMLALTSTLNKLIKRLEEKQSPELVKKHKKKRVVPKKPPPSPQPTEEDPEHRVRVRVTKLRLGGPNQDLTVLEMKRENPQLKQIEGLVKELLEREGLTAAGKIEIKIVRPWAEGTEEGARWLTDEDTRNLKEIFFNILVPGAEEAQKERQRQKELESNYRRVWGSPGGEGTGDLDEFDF

The experiment “OS-9 ΔMRH (267–666)” concerns the target B1.

What is called Kd is the constant that tells how readily two partners part at equilibrium. A higher Kd goes with a looser complex. For B1, the Kd in the experiment with His-Grp94-MC (337–765) [1] is 8.4 ± 2.3 µM.

B2: OS-9 CTE (589–666) (domain or fragment, rat, UniProt Q5RKH6 589-666, looked up)
chain: KIEIKIVRPGAEGKEEDTRWLTDEDTRNLKEIFFNILVQGAEEANKERQRQSELESNYRRVWGSPGGEDTGDLDEFDF
For B2, in the experiment with Grp94-M (337–594), binding was put at a Kd of 14.3 ± 2.1 µM, the dH is -9.1 ± 1 kcal/mol and the “stoichiometry N” value is 3.4 ratio of Grp94 monomer to the OS-9 hexamer. Moreover, in the experiment with Grp94-C (601–754), the Kd amounted to 15 ± 1.1 µM, the dH was -33 ± 1.7 kcal/mol and the “stoichiometry N” value was 2.9 ratio of Grp94 dimer to the OS-9 hexamer. Further, in the experiment with His-Grp94-MC (337–765) [2], the Kd was found to be 22.4 ± 2 µM, the dH was -11.6 ± 1 kcal/mol and the “stoichiometry N” value is 2.7 ratio of Grp94 dimer to the OS-9 hexamer.

B3: Grp94 C domain (protein)
chain: EGVKFDESEKTKESREAIEKEFEPLLNWMKDKALKDKIEKAVVSQRLTESPCALVASQYGWSGNMERIMKAQAYQTGKDISTNYYASQKKTFEINPRHPLIKDMLRRVKEDEDDKTVSDLAVVLFETATLRSGYLLPDTKAYGDRIERMLRLSLNIDPDAKVEEEPEEEPEE
In the experiment with OS-9 ΔMRH, B3 displayed a Kd of 24 µM.

B4: Grp94 M domain (protein)
chain: NDIKPIWQRPSKEVEDDEYKAFYKSFSKESDDPMAYIHFTAEGEVTFKSILFVPTSAPRGLFDEYGSKKSDYIKLYVRRVFITDDFHDMMPKYLNFVKGVVDSDDLPLNVSRETLQQHKLLKVIRKKLVRKTLDMIKKIADEKYNDTFWKEFGTNIKLGVIEDHSNRTRLAKLLRFQSSHHPSDITSLDQYVERMKEKQDKIYFMAGSSRKEAESSPFVERLLKKGYEVIYLTEPVDEYCIQALPEFDGKRFQNVAKE
As for B4, binding with OS-9 CTE was characterised by a dissociation constant (Kd) of 14 µM. Besides, in the experiment with OS-9 ΔMRH, the dissociation constant (Kd) worked out at 25 µM. In the experiment with OS-9 ΔMRH (267–666), binding was characterised by a dissociation constant (Kd) of 25.4 ± 2.6 µM, the dH was -3.3 ± 0.1 kcal/mol and the “stoichiometry N” value was 2.8 ratio of Grp94 monomer to the OS-9 hexamer.
Consider B5, for which, in the experiment with OS-9 ΔMRH (267–666), the Kd is 24.6 ± 1.7 µM, the dH is -14 ± 0.7 kcal/mol and the “stoichiometry N” value is 1 ratio of Grp94 dimer to the OS-9 hexamer.

B6: Grp94 MC domains (protein)
chain: NDIKPIWQRPSKEVEDDEYKAFYKSFSKESDDPMAYIHFTAEGEVTFKSILFVPTSAPRGLFDEYGSKKSDYIKLYVRRVFITDDFHDMMPKYLNFVKGVVDSDDLPLNVSRETLQQHKLLKVIRKKLVRKTLDMIKKIADEKYNDTFWKEFGTNIKLGVIEDHSNRTRLAKLLRFQSSHHPSDITSLDQYVERMKEKQDKIYFMAGSSRKEAESSPFVERLLKKGYEVIYLTEPVDEYCIQALPEFDGKRFQNVAKEGVKFDESEKTKESREAIEKEFEPLLNWMKDKALKDKIEKAVVSQRLTESPCALVASQYGWSGNMERIMKAQAYQTGKDISTNYYASQKKTFEINPRHPLIKDMLRRVKEDEDDKTVSDLAVVLFETATLRSGYLLPDTKAYGDRIERMLRLSLNIDPDAKVEEEPEEEPEE
In the experiment with OS-9 CTE, B6 displayed a Kd of 22 µM. For the same molecule, in the experiment with OS-9 ΔMRH (267–666), the dH was -7.2 ± 2.3 kcal/mol and the “stoichiometry N” value was 0.15 ratio of Grp94 dimer to the OS-9 hexamer.

(Values after paper PMC4188734 (Journal of molecular biology, 2014).)
